Experimental findings from a protein production outcome set (Wang et al. 2014) are described below.

A short description of this series: label from the status in PepcDB records.
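Note: failed if final PepcDB status was selected cloned or expressed and not failed if soluble or beyond.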

Turning to “MKNPDYEPSKPHHTPDGFRNRYPHAPRDSNGSAWKWMRERRRLGLPKPPTADLSCVPPDLAAIRRPSAVPQVTWIGHETLLLQIDGLNVLTDPVFGERASPLPFAGPRRHQPPGLSLAQLPHIDLVLLSHNHYDHLCRASVRALMRQPGGAPMFFVPLGIDRWFKRHVRGTRLSGEHVNVRAFDWDTEARFGPFSVHFCAVQHWSARGLYDRNRTLWGSWALLHPQLRFWFSGDLGYSQDTRDIGARFGHFDVAAIAVGAYEPRWFMKTQHIDPAEAVQVMQDIGARHAVGIHWGTFPLTDEPLDQPIADLANALRARDIDAERFVLFRHGETRVWDAQAARLLTPAEQQKARPRVDSLAAQ”, the protein production result was “failed”. With “MKNTKFSIKKIKNISNDPKVVHTKGALLEKMGKMESAIELYKSAALDNYVKSQYTLGNIYESKKQFKEAEKWYSMAYKSGSEDAAFDLGNMYYKLDGYEYAIYWYEKIANLGYLQAQNNLGVCHFKMKDFVRCEKWLKTAADKNLGKACFNLGVLYTFLEKDDEAYEYYKKGSVLLDDDAKYNLAILNGKKKDNKSTVSLYKQLYKSGHMKGCFNLGMIMEINDNLEDAEKYYKKSADRDDVKSEYRLAYVYDRKEELGDAIYYYEKAIEKNHTLSKYRLANLYNRENEIEKAKTYYKMAAEDDITEAKNNLAGIYFEEKDYENAIKYYEDAIAVGCKSSLENLGDLYYQNQDIEKAISYYSRIPNNVSCQIKLGNIYEDLNNIEEAISWYKKASENGDTRSSYRLGCIYESLGNTKNARKYFEMASSKNHMNARIHLGRIYFREGKLEESKMMFDTPANENNVYAQHMVGLIYDMFYKDYVNSKFWYEKARAQGCVESIYNLGQIYLKLNDDAEAEKYYKEGIKYGSKKCEYMLAGLYYKKSLDMYISLANEEYDNCEEIVEGFPNLNIDFDEVLIPPFKLQEEVIDEEEYVPIYILNIKESLDSMLEGLETEMIIDEEHDS”, the protein production result is given as “failed”. For the sequence “MKNVLILGAGGQIARHVINQLADKQTIKQTLFARQPAKIHKPYPTNSQIIMGDVLNHAALKQAMQGQDIVYANLTGEDLDIQANSVIAAMKACDVKRLIFVLSLGIYDEVPGKFVEWNNAVIGEPLKPFRRAADAIEASGLEYTILRPAWLTDEDIIDYELTSRNEPFKGTIVSRKSVAALITDIIDKPEKHIGENIGINQPGTDGDKPFFM”, the protein production result is recorded as “not failed”. For the sequence “MKNVLYICIGALLAVLAFSSCNDGIDIRQDYDFSLSSWYLQKQIATGETVEIRFYLDREGDYEKAEYEIGYIQMEGKGEVSDCEGVKLVNREVKPLAEVPGLDTENPVKQVFTLFYRSTSARRSELKFFVRDNFGQEREMTVTFDTESGTTEE”, the protein production entry is listed as “failed”. As for “MKNYLQILRETLKAMLSKPMWLMVVASVCITSLPYMNHTALDLPVAVVDEDHSDVSRELVRLLDSAPKVAVVGYDSLPQAKRDLAWRKLYAIIVIPLNFEKRLLRGEALVIPYFGDATNRMANGQIQQDISAVYSALTNRYNAALLEREGFTATQAQVVLSPLVGQLTDLFNPGISFAAIVLPGLLSLILQHSLLLGCTRGNIMLRGGTPRYMRQPLSTRFGRYSAQLLIWTVLAMLFYVIWPHLLGYRQSASFFMLLGIVLPFLIAVIALSEFIAELLPTEESVYLTMTFITLPLFYMAGYSWPEQAMPDWVRWLADAIPSTWAIRAIAEMNQMDLPLREVSDHALVLLGMAATYALLGTLLYQYRNWRWDNVKGW”, the protein production entry is recorded as “failed”. Turning to “MKPEISIIVPIYNVEKYLSKCIDSILNQSFTNFELILVNDGSNDRSGIICDEYTLKDERIRVIHKKNGGVSSARNSGISLALGKYIGFVDPDDYIKEEMYEILYNLCKKYKTDISICKLGREINGTLINNEENGEIIELDNVNGLKELFKGILYRFSLCNKLFKRECFRGVIFPEGRIHEDLSTTYRLFANAKKSIYFDYVGYIYVKRENSILTTTYNEKRLQAFIGWNEILEFMINKYPMLEDNVVACFGYSCIDHSNYILNQVIGFNNKIRLLNFIRYEVKQRFSLLVKNKILINKLKLILILLMLNSRFLIISKYKGKGVYRKRIRI”, the protein production result was “failed”. On to “MKPKLILMSHGRMAEETLASTQMIVGELADAAIVSMTAEDGLSGTQAKLAAILKEAGNVPTLVLADLKGGTPCNVAMMAMGTYPQLRVVAGLNLAMAIEAAVSPVENVDELAAYLTQIGQSAVTTIDLPELTDEEEFEE”, for which the protein production result is given as “not failed”. The entry for “MKPLSARQQQVLQATVHHYVDTMEPVGSRTLVQRFGIPASSATVRSAMGALEKRGLLTQPHTSAGRIPSALGYRCYVDDLLPEPGVAVQHLERELTGLSLRWAALDDLLQQLARRLTDFTGLMSLITRPQQPRAQLEAIRLVQSGDRLLVMLVEDSGRASHLNLRLPPGASDELTAIERWTDQQLEDGSINWRSLPPQLQRSGDVLRSALDHPSMSPETPLVVHGLSRLVAEPEFHSTAELRPLLELIDDQPCAVVSATDQPGVWIGEEHPQKALQACSVVQAPYRCGQEGVGQVALVGPMRMAYATAHAAVQRVARHLDLLLN” is “failed”; for “MKPNFSRDYQLKWLFYVYCVRSEVGEEEEKKKVTKKTRKRVRFDLNVQTYEPIVPSRYENACSDDEEGKGGRSKGSSAIDKKPEDLSSRSVYPSNYRYHNCVDSFEDEDDEMGYGESDLEDEDYYTDNENDYEDDADDEDEEEEEENEQDVAPLLNPVENLAQWKAVKARPVKVKRVMKENVEEDMDDQAKPLLKEIIVNTSLSNWLASPKSLHANGSSKRSPIVDITNMENR” it is “failed”; for “MKPQLSWKVGGQQGEGIESTGEIFATAMNRKGYYLYGYRHFSSRIKGGHTNNKIRVSTTPVHAISDDLDILIAFDQETIDVNHHEMREDSIILADAKAKPVKPEGCHAQLIELPFTATAKELGTALMKNMVAIGATSALMNLNTNTFEELITNMFSKKGDKVVEVNIQALNEGYQLMQSRLPEIDGDFELESTDALPHLYMIGNDAIGLGAIAAGSQFMAAYPITPASEVMEYMIANISKVNGAVIQTEDEIAAVTMAIGANYGGVRAFTASAGPGLSLMMEAIGLSGMTETPLVIINTQRGGPSTGLPTKQEQSDLMQMIYGTHGDIPKIVVAPTDAEDAFYLTMEAFNLAEQYQCPVIVLSDLQLSLGKQTVEKLDYNRIEIKRGEIIQSDIEREEDDKGYFKRYALTSNGVSPRPIPGVKGGIHHITGVEHNEEGKPSESASNRQQQMEKRMRKIEQLLIESPVEANLQHEDADILYIGFISTKGAIQEGSNRLNQQGIKVNTIQIRQLHPFPTSVIQDAVNKAKKVVVVEHNYQGQLASIIKMNVNIHDKIENYTKYDGTPFLPHEIEEKGKIIATEIKEMV” it is “not failed”. With “MKPRNIAIACGVAGVAVSLAAATGIVYHKQIKSAASLKRLTGYADGYDLYAIDIAYDYDLNRIIAAGVRDDQAYIDAVVAQVLPGVPVHVQAPQFACSAFVAVDAEGRVRTGRNYDFKDDTSALLVRNHPRGGYASIGFAALNNLGDNTPLDSVAGRAAALMGPFGQLDGVNECGVSIAVLTLDSKPCDQDAQRPVINTSLAIRLVLDRAATTQEAVDLLSAYDMHAMAGRDYHFFINDAAGDARVVEWDPRDPDRAFKATPVRQVTNFYACYGDEVLPNQKNGELGHGKERAIAIADVLDAHVGAQDEAVAWKALRAAAQEPNPKDITSNTQWSVVFDNTEPAAAITLRRHWGDVDAFAL”, the protein production result is recorded as “failed”.

For “MKPSFKKLLLLFSIITILSIACTPHAKASGRSWKSWFIEQYFWLKRDKSYYKVQDESSFQKYLNASREQSDKGYYLDPNSVNGGLVQERLFDMQVYSWNDNGKANQKTIFYLAGGSYLNNPTPYHISMLKTLSTSLDAKIILPIYPKTPRYTYDYAIPRLVNLYRHFHEKNANLTLMGDSAGGGLALGLAHALSHQSGQEAIPQPKNIILLSPWLDVTMKHPEIPKYEDTDPILSAWGLARVGEIWANGSNNTNHTYVSPKNAPATKLAPITLFTGTREIFFPDIRDYAAQLQAANHPVNYIAQEGMNHVYPIYPIEEAKTAQYQMIDIINKTP”, the protein production entry is “failed”.

As to “MKPSQWTLRWVTLCGCGMLAASAAAVELPGTVQPSQLDERFKPRSEPQAKPEAPLVVPKQVAPQGSEQIRFKLREIRIEGNTRYDKAVLESYYQHMLGEQVSLAELVDLANRLTAKYRQDGFLLTQVVVPEQSIEGGKVRLQVIEGYLEHVQIKGTVDGPRVRVEELLAPLTEKRPLDADTLERGLLLVGDLPGVNVQSVLSPGQALGSSNLDVALQQQRYEGFVSLDNRGSHYTDPTTLAFGATEFSRLGFYEQIDVLGAISPFSDATRYIQLRGTLPLGGMFAGDTLQIMGSYSKVNPDIPDSVFPFDSVSKSTEGSISYNHPFIRSRSQNLSGGLALQWKDTETRLRDFASDASNPGRDHVRVFQQRLTYDWVDRWMGINLAEVRNNIGLDMWGATKKDDERRSREVADGRFVYLNGNIGRLQGLGGPWSVYGELQWQYSFDPLLPSERFGVGGSGIGRGFAPGNITGDRGFALKLEPRYGQAVGYSWLRSYQAYAFYDWGKTYNLDVDDDEQQKLGSIGAGVRFNLTDQLSFNPEIARQVIGEPADQRDGKRETRVLFNVVARF”, the protein production entry is “failed”. The entry for “MKQILFLLAAVLLLGGCAEEKKTDVRWATFNIRYDNPQDSLNNWQYRKDRVCQFIKDHELDIVGMQEVLHNQFQDLRAGLPEYDGIGVGRDDGKTAGEYAPLFYRKDKYEVLDSNTFWLAENPDSVGMMGWDAVCVRIATWAKFKDKATGKIFMAVNTHFDHVGEEARRQSALLIIRKIKEIVGERPAVVTGDFNVTDASDAYETITTNEFVMKDAYKTAARVTGVDYTFHDFARIPAEDCEKIDFIFVTPQVLVKSCEIPAEVPEALLSDHNPQLADLEF” is “failed”; for “MKQIVAGIVAHVDAGKTTLSEALLYRTGEIRKLGRVDHGDAFLDTNSLEKARGITIFAHQALVEHGDLRLTLLDTPGHVDFAAETERVLRVLDYAILVVSGTDGVQGHTETLWRLLARYGVPTFIFVNKCDAAGFAREAILAQLRKRLSDAIYPLPAMEQFTEGSAVPLDAFAEDIATLDEEAMNDYLEHGVLSVGRLRSMIAVRELFPVYFGSALKLEGVEEFLDGLETFTREREWPAAFAARVFKIAHDGQHNRMTWLRVTGGALKAKEIVSSSSCAAASTPSPAQEDDGMAWSEKVDQVRIYNGAKFETVTEVPAGSVCAVTGLTRTFPGEGLGAEPDAESPSLQPVLTYTVLPAGAESDTAGTSGAAKRGGTGHDSVNRDDAEHDAAKSETGRNEENDTAGQDAETDNSSPALPQFDDLTLHKVITALRELEDEDPLLHVVWVERLAEIHVQLMGTVQLEIIQQTLHDRFGLDVSFGPGSILYRETITAPVEGAGHFEPLRHYAEAHILLEPGEPGSGVTVGSALSENDLDRNWQRLILTHLTEREHLGVLVGAPLTDIKMTLVAGRAHLKHTEGGDFRQATYRAIRQGLMEARAGVSGRPETPVESRPDTTGEGNCRLLEPWYRFRLEVPADMIGRAMSDIQRMAGTFESPVTDGEYAVIEGEAPVSEMRDYAMDVNQYTHGHGHFSATFGGYKPCHDAKQVIAAAAYDPEADLDNTPDSVFCAHGAGYPVKWYKVPEFAHVDYVM” it is “failed”. For the sequence “MKQLFQKLYDHIEITLLVLLSVSFVTGMYMMMNRPIGPTMMDYVPQVIIGTIIIVDIVFLISGRKKENSK”, the protein production entry is on record as “failed”. Take “MKQLNDGDFIKIEFEMRVGEEKKLVSTSKADLAKENDIFDENARYGDIVVIVGQEGIFKEVNEAFRKAEPGQEVEVEVPPEDAFGQRLPSNIKIHTMREFQRLEHHHHHH”: the protein production result is “not failed”. Then “MKQLSGLLGELRQKLCAGFPEQAGIQQLIFPAPGLVGRQLLEWLTAQTHFPQFYWRHRDNHEEAAVCGQTRSFADMKDADDFIQQNPDANGLRIWGLNAFEPVMVFGQLTDNGLVSGKNAQASFLFLPRLEILRRGKKTSLTLNLSSETSLQKDALQAITFIDQLMAARALPVLNARIQHSSHTPGYPQWRNLIQQALNDIEQQKLDKVVLARTTTLTLNKPLSCAAFMAASRQVNHRCYHFMLRFDDRQAFLGSSPERLYLRQQLHLETEALAGTVSNLDSDPQAAVLADWLMHDEKNQRENLLVVDDICQRLQGGVTAVDVMPPEIIRLRKVQHLRRRICAQLSRASDTDCLQRLQPTAAVAGLPREAARQFIAKHELFSRGWYAGSAGYLSLKRTEFSVALRSARVDGQQIHLYAGAGIVAGSDAEQEWQEIDNKSAGLQSLLEHEAQPVKA”, with “not failed”.
